According to publication PMC3057501 (Molecular cell, 2011):

Molecular target: the molecule itself
Experiment: SEC-MALS

B1: human PAPD1 (residues 44-538), wild type (enzyme, UniProt Q9NVV4 44-538, looked up)
chain: EQPSGSVETGFEDKIPKRRFSEMQNERREQAQRTVLIHCPEKISENKFLKYLSQFGPINNHFFYESFGLYAVVEFCQKESIGSLQNGTHTPSTAMETAIPFRSRFFNLKLKNQTSERSRVRSSNQLPRSNKQLFELLCYAESIDDQLNTLLKEFQLTEENTKLRYLTCSLIEDMAAAYFPDCIVRPFGSSVNTFGKLGCDLDMFLDLDETRNLSAHKISGNFLMEFQVKNVPSERIATQKILSVLGECLDHFGPGCVGVQKILNARCPLVRFSHQASGFQCDLTTNNRIALTSSELLYIYGALDSRVRALVFSVRCWARAHSLTSSIPGAWITNFSLTMMVIFFLQRRSPPILPTLDSLKTLADAEDKCVIEGNNCTFVRDLSRIKPSQNTETLELLLKEFFEYFGNFAFDKNSINIRQGREQNKPDSSPLYIQNPFETSLNISKNVSQSQLQKFVDLARESAWILQQEDTDRPSISSNRPWGLVSLLLPSAPNR
- stoichiometry N: 2
